Test results as given in the supplement of paper PMC10724198.
± gives the standard deviation of the averaged measurements.

Test system: Saccharomyces cerevisiae
Test: protein stability index of tFT-peptide fusion (C-terminal peptide) (PSI (0-1 scale)); higher = more stable (slower turnover)
Details: genetic background: wild type; temperature: 30 C
Protocol: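 Multiplexed protein stability (MPS) profiling in S. cerevisiae. Random 12-aa peptides (tFT-X12 library) are fused to the C-terminus of a sfGFP-mCherry tandem fluorescent timer, after mCherry and a GGGS linker. Cells are FACS-sorted into 8 mCherry/sfGFP bins and deep-sequenced. The protein stability index (PSI) is the read-weighted bin average, scaled from 0 (unstable) to 1 (stable). Only peptides with >10 reads are reported; cells were grown at 30 °C in SC-His with glucose.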
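Further: PSI is a weighted mean of sequencing reads over stability bins, variants kept only with over 10 reads, mCherry proximal and sfGFP distal, peptide attached via GGGS linker.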

Sequence | protein stability index
GPPPPPRPPLPP | 0.665 ± 0.049
GPPTASPLVAPA | 0.621 ± 0.02
GPRGWRASVWAG | 0.687 ± 0.07
GPRVFKPRTTHG | 0.663 ± 0.025
GPSFVVTVGNGG | 0.686 ± 0.02
GPSVPPLPRHEL | 0.728 ± 0.051
GPSVRSTARGPG | 0.724 ± 0.12
GPVCVVSGVFTV | 0.665 ± 0.072
GPYDLPCLPLSA | 0.633 ± 0.014
GQAGGRVEVREP | 0.6887 ± 0.005
GQCQERRKGGCA | 0.577 ± 0.0063
GQCRFVEDVYVT | 0.685 ± 0.009
GQMYTLATSAVV | 0.602 ± 0.076
GQRRDSSSEVWG | 0.67 ± 0.017
GQRWADGGFVEV | 0.783 ± 0.1
GQVTAHFRLARV | 0.697 ± 0.049
GRAGGDGVGGGV | 0.6382 ± 0.0024
GRCHRFQWSVRR | 0.681 ± 0.015
GRDKGNLQSLRR | 0.732 ± 0.014
GRGGLGGWEWDR | 0.712 ± 0.034
GRGGLGWWEWDR | 0.7462 ± 0.0067
GRGGVGWGEWDR | 0.729 ± 0.056
GRGGWVHRRIGA | 0.676 ± 0.035
GRGKKRKERAER | 0.649 ± 0.045
GRGRWRGGVAVE | 0.802 ± 0.13
GRGRWRSVYLRG | 0.622 ± 0.0078

Sequence | protein stability index
GRGVWEFGGGGG | 0.666 ± 0.056
GRIPELVWWLDD | 0.76 ± 0.037
GRIVPSFQGSPQ | 0.723 ± 0.093
GRKGGEGERERT | 0.6715 ± 0.0049
GRKRWVRLSLAC | 0.563 ± 0.028
GRKVPQRRQSAR | 0.749 ± 0.015
GRLGSTRRPPSG | 0.701 ± 0.0095
GRLIERCSLRMT | 0.68 ± 0.055
GRLKSTSTIRRF | 0.722 ± 0.021
GRLLCFLFCCSS | 0.603 ± 0.035
GRLRGGGPVAAR | 0.692 ± 0.053
GRLRNVSLLSFC | 0.662 ± 0.011
GRPHRYWRVVPY | 0.68 ± 0.036
GRPKGGGIGEAG | 0.6928 ± 0.00079
GRPKNSYNQNSG | 0.747 ± 0.013
GRPLRAPPPPSP | 0.65 ± 0.043
GRPYEHVVDPWR | 0.733 ± 0.029
GRRFCYQASAGQ | 0.642 ± 0.0093
GRRGCSGGLKGL | 0.675 ± 0.039
GRRGGGTGAPSR | 0.65 ± 0.05
GRRVVRGWLVRR | 0.683 ± 0.095
GRRWGGERVREG | 0.66 ± 0.015
GRRWPVPGGVSA | 0.693 ± 0.09
GRSPMGDGGFFS | 0.7284 ± 0.0034
GRTKFIPTPSTY | 0.712 ± 0.023
GRVQARGRPGLD | 0.632 ± 0.045

Sequence | protein stability index
GRWGRGGASVVT | 0.649 ± 0.029
GSACSLCGLYFN | 0.709 ± 0.073
GSCVVRKFGKRS | 0.681 ± 0.016
GSDDLVSVSSAE | 0.708 ± 0.028
GSDEVGTGWGRL | 0.669 ± 0.13
GSFFFFLAPSYF | 0.636 ± 0.014
GSGAQVERCRWE | 0.719 ± 0.02
GSGGLRVVCLLM | 0.653 ± 0.027
GSGRNMHLRGSL | 0.65 ± 0.019
GSGTGRWPGYGS | 0.718 ± 0.088
GSILPSGFLSFA | 0.7472 ± 0.003
GSLGTTTILRKT | 0.67 ± 0.064
GSLLSEERGRYW | 0.75 ± 0.026
GSNKWATANKYG | 0.6561 ± 0.0033
GSPLASSPSVID | 0.704 ± 0.041
GSPPSPPLPPPP | 0.674 ± 0.023
GSPTSAPLSPPP | 0.686 ± 0.0038
GSQSPKEEYHES | 0.632 ± 0.045
GSRAECWEVGGV | 0.6742 ± 0.004
GSRPVSAGCAYS | 0.655 ± 0.038
GSSGGVWPDLNY | 0.701 ± 0.012
GSSGQPDSPPIS | 0.684 ± 0.015
GSSLRRLPASCD | 0.676 ± 0.066
GSSQGCLICSIA | 0.649 ± 0.049
GSTNNHEVTENI | 0.688 ± 0.013
GSTRHFMSEKRE | 0.743 ± 0.079

Sequence | protein stability index
GSTSSSFPVSIR | 0.727 ± 0.045
GSVGFPDRLLCL | 0.73 ± 0.033
GSVLPPPAPPPL | 0.674 ± 0.021
GSVSWVLMWSWG | 0.623 ± 0.059
GSWAVQEHMLLE | 0.728 ± 0.065
GSWGEGGVAVGG | 0.653 ± 0.032
GSWRVLVLLGEL | 0.636 ± 0.029
GTCGDRGRGGER | 0.559 ± 0.023
GTDRRGRDAPHS | 0.586 ± 0.031
GTEYDENSGTNE | 0.642 ± 0.011
GTGDGRHRCRWN | 0.6655 ± 0.006
GTGGRMIRWGLG | 0.667 ± 0.061
GTGQSRAEGARP | 0.672 ± 0.015
GTLPLGVRGGLK | 0.657 ± 0.081
GTQTITAQRAAA | 0.643 ± 0.015
GTRGGGGWSCES | 0.701 ± 0.06
GTRRIDSKDICP | 0.742 ± 0.04
GTRVGRARGGRK | 0.835 ± 0.047
GTSDPRGSGPAG | 0.715 ± 0.015
GTVGTGFGGGVE | 0.677 ± 0.12
GTVTVLVGVHWE | 0.539 ± 0.008
GTWEGDTSACAR | 0.636 ± 0.047
GVAEGRKVGAST | 0.654 ± 0.036
GVAKRGREGCWS | 0.569 ± 0.065
GVAVVSGREGRG | 0.7809 ± 0.0063
GVCGRWWTCMGV | 0.722 ± 0.061

Sequence | protein stability index
GVCRGSRVGLVP | 0.714 ± 0.025
GVCRVAVGGGAT | 0.713 ± 0.033
GVCSRAVGSGSF | 0.715 ± 0.067
GVDGGGKWRGWG | 0.651 ± 0.06
GVFASWAWFGVG | 0.71 ± 0.046
GVFGFGARLCIG | 0.6782 ± 0.0043
GVFGLMVGWGWA | 0.665 ± 0.083
GVFGWAGCGVVL | 0.7188 ± 0.0043
GVGGFGFGWSMV | 0.725 ± 0.057
GVGGGRRGGGGG | 0.6409 ± 0.0036
GVGLDSMCVEGF | 0.723 ± 0.1
GVGLLAHLLIYR | 0.556 ± 0.0086
GVGREGEIGGGG | 0.544 ± 0.037
GVGRVGLACFVV | 0.542 ± 0.029
GVGWRGGCEGGV | 0.711 ± 0.062
GVIRGNRLELIV | 0.618 ± 0.025
GVKMVHERHNRV | 0.665 ± 0.057
GVLACVEYSRMS | 0.683 ± 0.0084
GVLARAYPTLWV | 0.68 ± 0.035
GVLGCCGLAWRG | 0.697 ± 0.073
GVLRVRLLAFGL | 0.65 ± 0.026
GVLVGLGWGWGG | 0.7135 ± 0.0011
GVNGFRIVCGGE | 0.674 ± 0.062
GVNLFEIVRSVT | 0.7169 ± 0.0012
GVNTKEEPNEFI | 0.698 ± 0.041
GVPQEGHGLEGY | 0.7045 ± 0.00013

Sequence | protein stability index
GVPRMLVGAFRG | 0.684 ± 0.022
GVQSSAPVKVRI | 0.6551 ± 0.0046
GVRRPYRSDLRL | 0.678 ± 0.023
GVRRVAVLYLLY | 0.527 ± 0.041
GVSAKVRRETVR | 0.725 ± 0.078
GVSCIAEGRGGV | 0.6693 ± 0.0045
GVSGGFVGSSGG | 0.62 ± 0.024
GVSTGSGASVAA | 0.659 ± 0.051
GVVFGWAGYKGT | 0.677 ± 0.034
GVVGDGGRLSGD | 0.667 ± 0.022
GVVGTISLFVLD | 0.61 ± 0.018
GVVPCVVGFICG | 0.687 ± 0.04
GVVRLYYLRIGR | 0.652 ± 0.11
GVVVLGRRMGAG | 0.6441 ± 0.0049
GVVVRGGEWGLD | 0.675 ± 0.061
GVWVMSGPVTRR | 0.716 ± 0.053
GWAVGVGGGRGR | 0.686 ± 0.017
GWAWGVALGVRG | 0.54189 ± 0.00034
GWFFFGCFECGG | 0.731 ± 0.024
GWFRDCEWGASS | 0.712 ± 0.061
GWFWGRGGRGRG | 0.657 ± 0.05
GWGFVGGTVAAV | 0.705 ± 0.034
GWGHYFGLIREQ | 0.698 ± 0.045
GWGLCGRAAGVE | 0.692 ± 0.011
GWGWDAVGVGGP | 0.711 ± 0.0074
